Assay results taken from US20040091487A1 (ALBERT EINSTEIN COLLEGE OF MEDICINE OF YESHIVA UNIVERSITY, published 2004).
Substitutions are numbered along the chain they refer to.

T1: GAL4AC-IN-2 (HIV-2, UniProt P04584 1172-1464)
T1 construct: domain: integrase
T1 sequence: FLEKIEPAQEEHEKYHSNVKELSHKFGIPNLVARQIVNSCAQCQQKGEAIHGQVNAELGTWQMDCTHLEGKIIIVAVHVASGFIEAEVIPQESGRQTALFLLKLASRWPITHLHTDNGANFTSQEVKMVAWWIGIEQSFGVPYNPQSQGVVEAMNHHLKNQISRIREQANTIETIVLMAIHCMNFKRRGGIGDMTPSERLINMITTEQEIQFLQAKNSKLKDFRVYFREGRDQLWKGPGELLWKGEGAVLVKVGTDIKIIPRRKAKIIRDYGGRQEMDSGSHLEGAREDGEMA

B1: LexADB (other, UniProt P0A7C2 1-87, looked up)
chain: MKALTARQQEVFDLIRDHISQTGMPPTRAEIAQRLGFRSPNAAEEHLKALARKGVIEIVSGASRGIRLLQEEEEGLPLVGRVAAGEP
notes: Negative control of the two-hybrid assay; also called LexADB alone
B2: GAL4AC (other, UniProt P04386 768-881, looked up)
chain: ANFNQSGNIADSSLSFTFTNSSNGPNLITTQTNSQALSQPIASSNVHDNFMNNEITASKIDDGNNSKPLSPGWTDQTAYNAFGITTGMFNTTTMDDVYNYLFDDEDTPPNPKKE
notes: Negative control of the two-hybrid assay; also called GAL4AC alone
B3: GAL4-AC fusion of S6 mutant E3 (other)
chain: PEVLVPIRLDMEIDGQKLRDAFTWNMNEKLMTPEMFSEILCGDLDLNPLTFVPAIASAIRQQIESYPTDSILEDQSDQRVIIKLNIHVGNISLVDQFEWDMSEKENSPEKFA
notes: also called pGADNot-E3
B4: GAL4-AC fusion of S6 mutant E10 (other)
chain: B3 chain with G42D, D45G
B5: GAL4-AC fusion of S6 mutant E4 (other)
chain: B3 chain with T32A, G42D

Legend:
GAL4AC = target: B2; test: yeast two-hybrid, β-Gal staining
GAL4AC-IN-1 = target: T2, GAL4AC-IN-1 (HIV-1, UniProt P04585 1148-1435); test: yeast two-hybrid, β-Gal staining
T2 construct: domain: integrase

GAL4AC-IN-2 = target: T1, GAL4AC-IN-2; test: yeast two-hybrid, β-Gal staining
LexADB-INI1/hSNF5 = target: T3, LexADB-INI1/hSNF5 (human, UniProt P0A7C2 1-87 (Escherichia coli entry), limits assumed); test: yeast two-hybrid, β-Gal staining
T3 construct: also called pSH2-INI1

LexADB-IN-1 [1] = target: T4, LexADB-IN-1 (HIV-1, UniProt P0A7C2 1-87; P04585 1148-1435); test: yeast two-hybrid, β-Gal staining
T4 construct: Yeast two-hybrid fusion

LexADB-IN-1 [2] = target: T4, LexADB-IN-1; test: reverse yeast two-hybrid, X-Gal staining

B1: no binding (GAL4AC); no binding (GAL4AC-IN-1); no binding (GAL4AC-IN-2).

B2: no binding (LexADB-INI1/hSNF5); no binding (LexADB-IN-1 [1]).

B3: no binding (LexADB-IN-1 [2]).

B4: no binding (LexADB-IN-1 [2]).

B5: no binding (LexADB-IN-1 [2]).
